Data on 6 molecules can be found in US20220195063A1 (BYONDIS B V, published 2022).

First the molecules themselves.
B1: anti-SIRPα antibody 9 (antibody, human IgG1, kappa, L234A L235A, V domains shown)
VH: QSMEESGGRLVTPGTPLTLTCTASGFSLSNYGVSWVRQAPGKGLEWIGIIYGGSDITAYASWAKGRFTISKTSTTVDLTITSPTTEDTATYFCAKSYTNGMDYYNIWGPGTLVTVSL
VL: AFDLTQTPSSVEAPVGGTVIIKCQASQSISSYLAWYQQKPGQPPKLLIYSASTLASGVSSRFKGSGSETQFPLTISDLESADAATYYCQSYYGSRSNVFGGGTEVVVKR
notes: Rabbit variable regions on human IgG1 LALA / kappa
B2: 29AM4-5huIgG1LALA (antibody, V domains shown)
VH: EVQLVESGGGLVQPGGSLRLSCAASGFNISYYFIHWVRQAPGKGLEWVASVYSSFGYTYYADSVKGRFTISADTSKNTAYLQMNSLRAEDTAVYYCARFTFPGLFDGFFGAYLGSLDYWGQGTLVTVSS
VL: DIQMTQSPSSLSASVGDRVTITCRASQSVSSAVAWYQQKPGKAPKLLIYSASSLYSGVPSRFSGSRSGTDFTLTISSLQPEDFATYYCQQAVNWVGALVTFGQGTKVEIKR
notes: HAVT20 leader left out
B3: anti-SIRPα antibody 6 (antibody, human IgG1, kappa, L234A L235A, V domains shown)
VH: QSVEESGGRLVTPGTPLTLTCTVSGIDLSSYTMTWVRQAPGKGLEWIGIIYAGGSTAYASWAKGRFTISKTSTTVDLKITSPTTEDTATYFCARSSSDGYDYFNIWGPGTLVTVSL
VL: GVVMTQTPSSVSAAVGGTVTINCQASQSIGSWLAWYQQKPGQPPKLLIYQASKLASGVPSRFSGRGSGTHFTLTISDVQSDDAATYYCQQTVTAASNVDNAFGGGTEVVVKR
notes: as for B1
B4: anti-SIRPα antibody 1 (antibody, human IgG1, kappa, L234A L235A, V domains shown)
VH: QSVEESGGRLVTPGTPLTLTCTVSGIDLSSYAMSWVRQAPGKGLEWIGIISSGGITYYASWAKGRFTISKTSTTVDLKIPSPTTEDTATYFCARSLWAASNYYMALWGPGTLVTVSS
VL: AIKMTQTPASVSAAVGGTVSINCQASEDIESYLAWYQQKPGQPPKLLIYRASTLASGVSSRFKGSGSGTQFTLTISDLESADAATYYCLGDYYSSSGDTGAFGGGTEVVVKR
notes: as for B1
B5: anti-SIRPα antibody 15 humanized (antibody, human IgG1, kappa, L234A L235A, V domains shown)
VH: RSVEESGGRLVTPGTPLTLTCTVSGFSLSSHGISWVRQAPGKGLEYIGTIGTGVITYFASWAKGRFTGSKTSTTVDLKITSPTTEDTATYFCARGSAWNDPFDPWGPGTLVTVSS
VL: ELVMTQSPSSLSASVGDRVTITCQASQSVYGNNDLAWYQQKPGEAPKLLIYLASTLATGVPSRFSGSGSGTDFTLTISGLQSEDFATYYCLGGGDDEADNVFGQGTKVEIKR
B6: anti-SIRPα antibody 16 humanized (antibody, human IgG1, kappa, L234A L235A, V domains shown)
VH: B5 VH
VL: B5 VL with E1D, L2I, V3E, L11V, I21L, E44Q, G79S, S82P, Q104G

Substitutions are numbered along the chain they refer to.

Chain of human SIRPαBIT (huSIRPαBIT), protein antigen (human) (P78324 31-370): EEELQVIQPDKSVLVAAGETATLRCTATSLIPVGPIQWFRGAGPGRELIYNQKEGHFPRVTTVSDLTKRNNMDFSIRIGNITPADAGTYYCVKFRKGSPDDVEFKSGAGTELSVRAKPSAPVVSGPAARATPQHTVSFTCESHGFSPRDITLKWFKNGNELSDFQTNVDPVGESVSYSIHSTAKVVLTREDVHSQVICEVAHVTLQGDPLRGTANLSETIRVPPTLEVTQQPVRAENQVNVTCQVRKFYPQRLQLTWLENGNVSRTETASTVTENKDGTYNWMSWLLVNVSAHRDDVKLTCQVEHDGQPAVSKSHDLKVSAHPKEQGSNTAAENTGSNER
T1 sequence (Q5TFQ8 30-371 limits assumed): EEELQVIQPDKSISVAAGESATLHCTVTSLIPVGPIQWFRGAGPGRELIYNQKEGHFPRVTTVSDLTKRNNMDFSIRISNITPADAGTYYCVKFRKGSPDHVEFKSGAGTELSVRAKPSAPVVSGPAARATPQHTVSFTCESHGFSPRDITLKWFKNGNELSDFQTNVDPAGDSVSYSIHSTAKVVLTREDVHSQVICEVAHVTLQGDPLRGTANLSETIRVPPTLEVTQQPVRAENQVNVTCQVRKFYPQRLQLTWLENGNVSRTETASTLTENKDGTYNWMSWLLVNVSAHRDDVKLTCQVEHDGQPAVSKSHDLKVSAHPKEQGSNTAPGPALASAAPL

For one assay, the target named is human SIRPβ1v1 (huSIRPβ1v1) (human) (UniProt O00241). In words: ELISA, antigen coated. Background: ELISA stands for enzyme-linked immunosorbent assay.
Chain of human SIRPβ1v1 (huSIRPβ1v1) (human) (O00241 30-371): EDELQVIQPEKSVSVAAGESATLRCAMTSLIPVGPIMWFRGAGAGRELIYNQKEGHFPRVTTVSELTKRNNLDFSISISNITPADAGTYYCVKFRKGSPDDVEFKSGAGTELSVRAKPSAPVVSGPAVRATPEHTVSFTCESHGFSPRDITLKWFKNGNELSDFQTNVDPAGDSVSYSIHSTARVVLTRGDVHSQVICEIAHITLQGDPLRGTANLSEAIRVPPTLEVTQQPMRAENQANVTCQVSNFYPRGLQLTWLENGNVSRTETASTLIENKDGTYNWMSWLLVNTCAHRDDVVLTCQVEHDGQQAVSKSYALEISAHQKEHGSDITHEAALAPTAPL
Turning to B1, the EC50 is over 100 µg/mL.
Molecule B2 registered a half-maximal effective concentration (EC50) of 0.013 µg/mL.
The same measure, in the same setting: for B3 the value was over 100 µg/mL.

A further assay addresses human SIRPαBIT (huSIRPαBIT), protein antigen (human) (UniProt P78324). In words: ELISA, antigen coated.
As for B1, the EC50 turned out to be 0.026 µg/mL.
Same read-out and setting: with B2 the figure was 0.009 µg/mL; with B4, 0.021 µg/mL.
For the molecule B3, the concentration for a half-maximal effect (EC50) turned out to be 0.02 µg/mL.

For another assay, the target named is human SIRPαBIT expressed on cells (human) (UniProt P78324). In words: flow cytometry, U937 cells.
Chain of human SIRPαBIT expressed on cells (human) (P78324 31-504): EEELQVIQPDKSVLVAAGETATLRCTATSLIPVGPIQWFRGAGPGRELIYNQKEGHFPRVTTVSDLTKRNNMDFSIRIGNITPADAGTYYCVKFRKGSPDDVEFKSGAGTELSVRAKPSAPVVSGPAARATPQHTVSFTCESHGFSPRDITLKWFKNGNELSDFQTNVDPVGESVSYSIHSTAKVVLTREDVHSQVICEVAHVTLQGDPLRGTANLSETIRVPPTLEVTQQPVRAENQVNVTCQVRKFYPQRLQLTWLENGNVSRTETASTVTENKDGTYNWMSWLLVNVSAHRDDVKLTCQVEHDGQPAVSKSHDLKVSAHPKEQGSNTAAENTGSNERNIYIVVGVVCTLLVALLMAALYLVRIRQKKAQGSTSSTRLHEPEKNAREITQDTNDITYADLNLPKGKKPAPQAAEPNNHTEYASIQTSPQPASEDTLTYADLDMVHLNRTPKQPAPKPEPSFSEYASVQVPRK
B1 registered an EC50 of 0.11 µg/mL.
Regarding B2, the EC50 was found to be 0.25 µg/mL.
Still for that read-out and setting: for B5 the value was 0.16 µg/mL; for B6, 0.23 µg/mL.

Another assay has as its target T1, human SIRPβ1v2 (huSIRPβ1v2) (human, UniProt Q5TFQ8 30-371).
T1 construct: Coated on the plate in ELISA; Only the Ensembl protein number is printed; also called huSIRPß1v2
In words: ELISA, antigen coated. The protocol: (§1) ELISA assay: Solutions of huSIRPα₁, huSIRPαBIT, huSIRPβ₁ᵥ₁, huSIRPβ₁ᵥ₂, huSIRPγ and cySIRPα in phosphate buffered saline (PBS) were each added to a multiple well black polystyrene plate for ELISA and allowed to adhere for 1 h at RT. Unbound protein was removed with three washing steps using standard washing buffer. Subsequently, blocking buffer was added to the wells. After 1 h incubation at RT, the wells were washed three times with standard washing buffer. The antibodies in buffer at various concentrations were added to the wells and incubated at RT for 1 h. Unbound antibodies were removed with three washing steps using standard washing buffer. Goat anti human IgG (Fab′)₂:horse radish peroxidase (HRP) in buffer was added to the wells and incubated at RT for 1 h. 3,3′,5,5′-Tetramethylbenzidine (TMB) was added and after sufficient colour development HCl was added. Absorbance was read at 450 nm/620 nm.
As to B1, the concentration giving a half-maximal response (EC50) is 0.047 µg/mL.
Still for that read-out and setting: with B2 the figure was 0.017 µg/mL.
The same measure, in the same setting: for B4 the value was 0.058 µg/mL; for B3, 0.024 µg/mL.

In the next assay the target is T2, human SIRPα1 (huSIRPα1), protein antigen (human, UniProt P78324 31-370, limits assumed, biotinylated in the SPR assay).
T2 construct: Coated on the plate in ELISA, biotinylated and captured in SPR; also called v2
T2 sequence (P78324 other isoform, or with tags, fused parts or gaps limits assumed): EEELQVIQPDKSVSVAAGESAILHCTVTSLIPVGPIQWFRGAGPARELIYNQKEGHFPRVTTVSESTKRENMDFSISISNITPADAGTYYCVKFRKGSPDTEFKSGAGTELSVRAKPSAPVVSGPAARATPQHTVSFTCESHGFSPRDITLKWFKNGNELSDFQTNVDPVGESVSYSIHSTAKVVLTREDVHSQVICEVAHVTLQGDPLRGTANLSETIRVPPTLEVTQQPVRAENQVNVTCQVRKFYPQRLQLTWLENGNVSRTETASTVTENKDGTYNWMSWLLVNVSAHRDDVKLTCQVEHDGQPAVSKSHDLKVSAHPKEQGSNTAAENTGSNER
In words: ELISA, antigen coated. The protocol:
as §1
In the case of B1, the concentration giving a half-maximal response (EC50) was 0.023 µg/mL.
Consider B2, for which the concentration giving a half-maximal response (EC50) came out at 0.009 µg/mL.
On the same count and under the same terms, for B4 the value was 0.039 µg/mL.
As to B3, the EC50 stood at 0.021 µg/mL.

For a further assay, the target named is T3, human SIRPγ (huSIRPγ) (human, UniProt Q9P1W8 29-360, limits assumed, biotinylated in the SPR assay).
T3 construct: Coated on the plate in ELISA, biotinylated and captured in SPR
T3 sequence (Q9P1W8 29-360 limits assumed): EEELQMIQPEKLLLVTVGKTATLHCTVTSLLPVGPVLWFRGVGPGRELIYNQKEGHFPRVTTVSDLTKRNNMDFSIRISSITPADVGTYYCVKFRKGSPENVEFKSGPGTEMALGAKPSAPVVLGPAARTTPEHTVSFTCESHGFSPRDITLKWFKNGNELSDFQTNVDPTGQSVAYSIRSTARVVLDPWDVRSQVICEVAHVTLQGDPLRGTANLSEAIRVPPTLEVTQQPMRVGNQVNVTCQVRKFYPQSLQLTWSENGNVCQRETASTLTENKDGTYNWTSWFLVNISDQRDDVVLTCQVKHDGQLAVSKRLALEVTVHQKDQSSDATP
In words: ELISA, antigen coated. The method, then:
as §1
In the case of B1, the concentration for a half-maximal effect (EC50) was over 100 µg/mL.
B2 had an EC50 of 0.034 µg/mL.
Same read-out and setting: for B4 the value was 0.043 µg/mL; for B3, over 100 µg/mL.

The next assay addresses T4, cynomolgus SIRPα (cySIRPα), protein antigen (cynomolgus monkey, UniProt A0A2K5VYQ9 31-369).
T4 construct: Coated on the plate in ELISA
T4 sequence: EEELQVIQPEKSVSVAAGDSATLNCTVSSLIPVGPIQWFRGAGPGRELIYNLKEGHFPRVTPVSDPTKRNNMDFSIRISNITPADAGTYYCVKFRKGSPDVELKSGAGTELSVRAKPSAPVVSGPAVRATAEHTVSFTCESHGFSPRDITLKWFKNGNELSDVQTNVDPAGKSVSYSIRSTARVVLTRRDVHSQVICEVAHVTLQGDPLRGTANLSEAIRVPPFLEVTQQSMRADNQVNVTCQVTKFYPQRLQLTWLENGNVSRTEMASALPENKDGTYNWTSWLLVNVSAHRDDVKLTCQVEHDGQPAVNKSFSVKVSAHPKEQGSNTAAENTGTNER
In words: ELISA, antigen coated. The method, then:
as §1
Consider B1, for which the EC50 stood at 0.03 µg/mL.
Same read-out and setting: for B2 the value was 0.011 µg/mL.
Consider B4, for which the midpoint of the response, the EC50, lay at 0.305 µg/mL.
Same read-out and setting: for B3 the value was 0.033 µg/mL.

For orientation: EC50 means the midpoint of the concentration-response curve.
